Measured values taken from patent publication US20260176319A1 (KALLYOPE, published 2026).
Starred links: 1 amine or outer side, 2 acyl side, 3 side chain; linkers in the order of their positions; H or OH if unused. Non-standard residues stand in square brackets, D forms with d. Groups on a side chain read outwards from the residue. *: point of attachment. Trp(7-F) = N[C@@H](Cc1c[nH]c2c(F)cccc12)C(=O)O; Trp(7-Me) = Cc1cccc2c(C[C@H](N)C(=O)O)c[nH]c12; d(γGlu) = O=C(O)[C@@H](CCC(=O)[*:2])N[*:1]; C18 diacid = O=C(O)CCCCCCCCCCCCCCCCC(=O)*; Palmitoyl = CCCCCCCCCCCCCCCC(=O)*; 2Pal = N[C@@H](Cc1ccccn1)C(=O)O; 3Pal = N[C@@H](Cc1cccnc1)C(=O)O; 4Pal = N[C@@H](Cc1ccncc1)C(=O)O; Nle = CCCC[C@H](N)C(=O)O; AEEA = NCCOCCOCC(=O)O; Aib = CC(C)(N)C(=O)O; Sar = CNCC(=O)O

The binders below were run against human GRP receptor (human, UniProt P30550 1-384) (assay: cell-based or functional assay).
Chain of human GRP receptor (P30550 whole entry): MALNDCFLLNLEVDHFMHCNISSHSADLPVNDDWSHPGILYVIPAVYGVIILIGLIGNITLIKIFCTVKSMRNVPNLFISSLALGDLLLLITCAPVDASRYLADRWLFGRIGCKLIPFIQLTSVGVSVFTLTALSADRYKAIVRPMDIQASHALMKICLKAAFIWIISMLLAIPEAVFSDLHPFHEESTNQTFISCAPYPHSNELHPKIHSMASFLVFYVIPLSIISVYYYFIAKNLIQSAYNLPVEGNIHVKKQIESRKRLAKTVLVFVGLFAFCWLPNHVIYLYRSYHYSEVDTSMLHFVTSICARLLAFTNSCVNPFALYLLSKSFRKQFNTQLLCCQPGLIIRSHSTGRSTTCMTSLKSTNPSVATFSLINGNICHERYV

Binder	hIP1 GRPR EC50 [nM]
Palmitoyl-[d(γGlu)][AEEA][AEEA][AEEA][AEEA]GN[3Pal][Trp(7-Me)]AV[dA]HL[Nle]-NH2 (SMILES CCCCCCCCCCCCCCCC(=O)N[C@H](CCC(=O)NCCOCCOCC(=O)NCCOCCOCC(=O)NCCOCCOCC(=O)NCCOCCOCC(=O)NCC(=O)N[C@@H](CC(N)=O)C(=O)N[C@@H](Cc1cccnc1)C(=O)N[C@@H](Cc1c[nH]c2c(C)cccc12)C(=O)N[C@@H](C)C(=O)N[C@H](C(=O)N[C@H](C)C(=O)N[C@@H](Cc1c[nH]cn1)C(=O)N[C@@H](CC(C)C)C(=O)N[C@@H](CCCC)C(N)=O)C(C)C)C(=O)O) [Peptide 58]	4.22
Palmitoyl-[d(γGlu)][AEEA][AEEA]GNH[Trp(7-F)]AV[dA]HL[Nle]-NH2 (SMILES CCCCCCCCCCCCCCCC(=O)N[C@H](CCC(=O)NCCOCCOCC(=O)NCCOCCOCC(=O)NCC(=O)N[C@@H](CC(N)=O)C(=O)N[C@@H](Cc1c[nH]cn1)C(=O)N[C@@H](Cc1c[nH]c2c(F)cccc12)C(=O)N[C@@H](C)C(=O)N[C@H](C(=O)N[C@H](C)C(=O)N[C@@H](Cc1c[nH]cn1)C(=O)N[C@@H](CC(C)C)C(=O)N[C@@H](CCCC)C(N)=O)C(C)C)C(=O)O) [Peptide 56]	1.97
Palmitoyl-[d(γGlu)][AEEA][AEEA]GN[4Pal]WAV[dA]HL[Nle]-NH2 (SMILES CCCCCCCCCCCCCCCC(=O)N[C@H](CCC(=O)NCCOCCOCC(=O)NCCOCCOCC(=O)NCC(=O)N[C@@H](CC(N)=O)C(=O)N[C@@H](Cc1ccncc1)C(=O)N[C@@H](Cc1c[nH]c2ccccc12)C(=O)N[C@@H](C)C(=O)N[C@H](C(=O)N[C@H](C)C(=O)N[C@@H](Cc1c[nH]cn1)C(=O)N[C@@H](CC(C)C)C(=O)N[C@@H](CCCC)C(N)=O)C(C)C)C(=O)O) [Peptide 52]	1.75
Palmitoyl-[d(γGlu)][AEEA][AEEA]GN[2Pal]WAV[dA]HL[Nle]-NH2 (SMILES CCCCCCCCCCCCCCCC(=O)N[C@H](CCC(=O)NCCOCCOCC(=O)NCCOCCOCC(=O)NCC(=O)N[C@@H](CC(N)=O)C(=O)N[C@@H](Cc1ccccn1)C(=O)N[C@@H](Cc1c[nH]c2ccccc12)C(=O)N[C@@H](C)C(=O)N[C@H](C(=O)N[C@H](C)C(=O)N[C@@H](Cc1c[nH]cn1)C(=O)N[C@@H](CC(C)C)C(=O)N[C@@H](CCCC)C(N)=O)C(C)C)C(=O)O) [Peptide 51]	0.95
Palmitoyl-[d(γGlu)][AEEA][AEEA][AEEA][AEEA]GNH[Trp(7-Me)]AV[dA]HL[Nle]-NH2 (SMILES CCCCCCCCCCCCCCCC(=O)N[C@H](CCC(=O)NCCOCCOCC(=O)NCCOCCOCC(=O)NCCOCCOCC(=O)NCCOCCOCC(=O)NCC(=O)N[C@@H](CC(N)=O)C(=O)N[C@@H](Cc1c[nH]cn1)C(=O)N[C@@H](Cc1c[nH]c2c(C)cccc12)C(=O)N[C@@H](C)C(=O)N[C@H](C(=O)N[C@H](C)C(=O)N[C@@H](Cc1c[nH]cn1)C(=O)N[C@@H](CC(C)C)C(=O)N[C@@H](CCCC)C(N)=O)C(C)C)C(=O)O) [Peptide 59]	2.01
Palmitoyl-[d(γGlu)][AEEA][AEEA]GN[3Pal]WAV[Aib]HL[Nle]-NH2 (SMILES CCCCCCCCCCCCCCCC(=O)N[C@H](CCC(=O)NCCOCCOCC(=O)NCCOCCOCC(=O)NCC(=O)N[C@@H](CC(N)=O)C(=O)N[C@@H](Cc1cccnc1)C(=O)N[C@@H](Cc1c[nH]c2ccccc12)C(=O)N[C@@H](C)C(=O)N[C@H](C(=O)NC(C)(C)C(=O)N[C@@H](Cc1c[nH]cn1)C(=O)N[C@@H](CC(C)C)C(=O)N[C@@H](CCCC)C(N)=O)C(C)C)C(=O)O) [Peptide 3]	8.7
Palmitoyl-[d(γGlu)][AEEA][AEEA]GK([AEEA-AEEA-d(γGlu)-Palmitoyl])HWAV[dA]HL[Nle]-NH2 (SMILES CCCCCCCCCCCCCCCC(=O)N[C@H](CCC(=O)NCCOCCOCC(=O)NCCOCCOCC(=O)NCCCC[C@H](NC(=O)CNC(=O)COCCOCCNC(=O)COCCOCCNC(=O)CC[C@@H](NC(=O)CCCCCCCCCCCCCCC)C(=O)O)C(=O)N[C@@H](Cc1c[nH]cn1)C(=O)N[C@@H](Cc1c[nH]c2ccccc12)C(=O)N[C@@H](C)C(=O)N[C@H](C(=O)N[C@H](C)C(=O)N[C@@H](Cc1c[nH]cn1)C(=O)N[C@@H](CC(C)C)C(=O)N[C@@H](CCCC)C(N)=O)C(C)C)C(=O)O) [Peptide 57]	72.8
Palmitoyl-[d(γGlu)][AEEA][AEEA][AEEA][AEEA]GNHWAV[dA]HL[Nle]-NH2 (SMILES CCCCCCCCCCCCCCCC(=O)N[C@H](CCC(=O)NCCOCCOCC(=O)NCCOCCOCC(=O)NCCOCCOCC(=O)NCCOCCOCC(=O)NCC(=O)N[C@@H](CC(N)=O)C(=O)N[C@@H](Cc1c[nH]cn1)C(=O)N[C@@H](Cc1c[nH]c2ccccc12)C(=O)N[C@@H](C)C(=O)N[C@H](C(=O)N[C@H](C)C(=O)N[C@@H](Cc1c[nH]cn1)C(=O)N[C@@H](CC(C)C)C(=O)N[C@@H](CCCC)C(N)=O)C(C)C)C(=O)O) [Peptide 54]	3.12
{C18 diacid}-[d(γGlu)][AEEA][AEEA][AEEA][AEEA]GNHWAV[dA]HL[Nle]-NH2 (SMILES CCCC[C@H](NC(=O)[C@H](CC(C)C)NC(=O)[C@H](Cc1c[nH]cn1)NC(=O)[C@@H](C)NC(=O)[C@@H](NC(=O)[C@H](C)NC(=O)[C@H](Cc1c[nH]c2ccccc12)NC(=O)[C@H](Cc1c[nH]cn1)NC(=O)[C@H](CC(N)=O)NC(=O)CNC(=O)COCCOCCNC(=O)COCCOCCNC(=O)COCCOCCNC(=O)COCCOCCNC(=O)CC[C@@H](NC(=O)CCCCCCCCCCCCCCCCC(=O)O)C(=O)O)C(C)C)C(N)=O) [Peptide 53]	42
Palmitoyl-[d(γGlu)][AEEA][AEEA]GNHWAV[dA]HL[Nle][Sar]-NH2 (SMILES CCCCCCCCCCCCCCCC(=O)N[C@H](CCC(=O)NCCOCCOCC(=O)NCCOCCOCC(=O)NCC(=O)N[C@@H](CC(N)=O)C(=O)N[C@@H](Cc1c[nH]cn1)C(=O)N[C@@H](Cc1c[nH]c2ccccc12)C(=O)N[C@@H](C)C(=O)N[C@H](C(=O)N[C@H](C)C(=O)N[C@@H](Cc1c[nH]cn1)C(=O)N[C@@H](CC(C)C)C(=O)N[C@@H](CCCC)C(=O)N(C)CC(N)=O)C(C)C)C(=O)O) [Peptide 48]	1.1
EXXGNHWAVXHLK (Palmitoyl-D-γGlu-OEG-OEG-Gly-Asn-His-Trp-Ala-Val-D-Ala-His-Leu-Lys(Me)3-NH2) [Peptide 49]	4040
{C18 diacid}-[d(γGlu)][AEEA][AEEA]GKHWAV[dA]HL[Nle]-NH2 (SMILES CCCC[C@H](NC(=O)[C@H](CC(C)C)NC(=O)[C@H](Cc1c[nH]cn1)NC(=O)[C@@H](C)NC(=O)[C@@H](NC(=O)[C@H](C)NC(=O)[C@H](Cc1c[nH]c2ccccc12)NC(=O)[C@H](Cc1c[nH]cn1)NC(=O)[C@H](CCCCN)NC(=O)CNC(=O)COCCOCCNC(=O)COCCOCCNC(=O)CC[C@@H](NC(=O)CCCCCCCCCCCCCCCCC(=O)O)C(=O)O)C(C)C)C(N)=O) [Peptide 60]	7.27
